From paper PMC2849977 (Nature structural & molecular biology, 2009)

Molecular target: PHF8 (Homo sapiens, UniProt Q9UPP1)
Test: PHF8 demethylation time course
Assay type: biochemical
Conditions: equimolar ratio added

Sequence of PHF8 (Q9UPP1 37-483): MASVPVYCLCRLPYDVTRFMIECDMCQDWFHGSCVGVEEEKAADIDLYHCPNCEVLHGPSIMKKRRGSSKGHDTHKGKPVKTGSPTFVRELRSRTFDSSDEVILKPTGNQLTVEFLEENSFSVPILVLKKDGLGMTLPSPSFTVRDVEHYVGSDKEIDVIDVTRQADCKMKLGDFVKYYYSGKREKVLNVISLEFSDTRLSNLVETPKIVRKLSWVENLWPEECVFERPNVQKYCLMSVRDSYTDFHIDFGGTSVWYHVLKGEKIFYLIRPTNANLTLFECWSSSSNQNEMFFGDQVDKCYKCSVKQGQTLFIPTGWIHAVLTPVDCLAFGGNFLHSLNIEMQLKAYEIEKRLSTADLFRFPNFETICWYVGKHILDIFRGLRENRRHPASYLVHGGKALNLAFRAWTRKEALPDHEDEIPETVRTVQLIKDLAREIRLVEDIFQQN

Substance	effect of added peptide in trans on demethylation of H3_1–24K9me2 by PHF8
H3_1–12K4me3: H3K4me3 modification in a short H3_1–12 peptide	inhibitory effect
H3_1–21K4me3: H3K4me3 modification in a long H3_1–21 peptide	inhibitory effect
